Data: US20040191240

Biological target: recombinant full-length p21 (Santa Cruz)
Sequence (chain, as listed by the source): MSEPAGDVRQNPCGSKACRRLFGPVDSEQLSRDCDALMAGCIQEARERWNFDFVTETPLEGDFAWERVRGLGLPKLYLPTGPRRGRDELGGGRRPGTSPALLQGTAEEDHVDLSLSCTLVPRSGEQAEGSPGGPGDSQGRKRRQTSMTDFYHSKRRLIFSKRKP

B1: Rho kinase fragment (aa 1-543, Upstate Biotechnology) (protein)
chain: MSRPPPTGKMPGAPETAPGDGAGASRQRKLEALIRDPRSPINVESLLDGLNSLVLDLDFPALRKNKNIDNFLNRYEKIVKKIKGLQMKAEDYDVVKVIGRGAFGEVQLVRHKASQKVYAMKLLSKFEMIKRSDSAFFWEERDIMAFANSPWVVQLFYAFQDDRYLYMVMEYMPGGDLVNLMSNYDVPEKWAKFYTAEVVLALDAIHSMGLIHRDVKPDNMLLDKHGHLKLADFGTCMKMDETGMVHCDTAVGTPDYISPEVLKSQGGDGFYGRECDWWSVGVFLYEMLVGDTPFYADSLVGTYSKIMDHKNSLCFPEDAEISKHAKNLICAFLTDREVRLGRNGVEEIRQHPFFKNDQWHWDNIRETAAPVVPELSSDIDSSNFDDIEDDKGDVETFPIPKAFVGNQLPFIGFTYYRENLLLSDSPSCRENDSIQSRKNEESQEIQKKLYTLEEHLSNEMQAKEELEQKCKSVNTRLEKTAKELEEEITLRKSVESALRQLEREKALLQHKNAEYQRKADHEADKKRNLENDVNSLKDQLEDL
Rho-kinase activity toward S6 kinase substrate peptide ([gamma-32P]ATP, scintillation counting), in vitro: the estimated ICso value was 1.43 nM
